{"source": "the supplement of paper PMC9112550", "about": "“Optimization of the antimicrobial peptide Bac7 by deep mutational scanning” (BMC Biology, 2022);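 further: peptides expressed intracellularly from a pBAD plasmid library in pooled LB shake-flask culture, induced with 0.3% L-arabinose, DNA abundance read by NGS, three biological replicates, DESeq2 with apeglm shrinkage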", "data": [{"test_system": "Escherichia coli TOP10", "experiment": "shrunken log2 fold change of peptide-encoding DNA abundance (4.5 h post-induction vs induction); higher = less antimicrobial activity (less host growth inhibition)", "conditions": "time post-induction: 4.5 h; library: site-saturation at positions 5, 18, 19, 20", "values": [{"sequence": "RRIRTRPPRLPRPRPRPWNLPRP", "shrunken log2 fold change": -0.031}, {"sequence": "RRIRDRPPRLPRPRPRPACMPRP", "shrunken log2 fold change": 0.242}, {"sequence": "RRIRLRPPRLPRPRPRPQGYPRP", "shrunken log2 fold change": -0.141}, {"sequence": "RRIRIRPPRLPRPRPRPHETPRP", "shrunken log2 fold change": 0.0188}, {"sequence": "RRIRMRPPRLPRPRPRPHETPRP", "shrunken log2 fold change": -0.00213}, {"sequence": "RRIRLRPPRLPRPRPRPWCSPRP", "shrunken log2 fold change": -1.02}, {"sequence": "RRIRQRPPRLPRPRPRPKYWPRP", "shrunken log2 fold change": -0.309}, {"sequence": "RRIRARPPRLPRPRPRPCTKPRP", "shrunken log2 fold change": 0.143}, {"sequence": "RRIRWRPPRLPRPRPRPMYEPRP", "shrunken log2 fold change": -0.103}, {"sequence": "RRIRYRPPRLPRPRPRPYLGPRP", "shrunken log2 fold change": -0.261}, {"sequence": "RRIRERPPRLPRPRPRPTAKPRP", "shrunken log2 fold change": 0.0302}, {"sequence": "RRIRFRPPRLPRPRPRPMVEPRP", "shrunken log2 fold change": -0.0547}, {"sequence": "RRIRSRPPRLPRPRPRPDTMPRP", "shrunken log2 fold change": -0.462}, {"sequence": "RRIRYRPPRLPRPRPRPNFLPRP", "shrunken log2 fold change": -0.623}, {"sequence": "RRIRHRPPRLPRPRPRPMWGPRP", "shrunken log2 fold change": -0.234}, {"sequence": "RRIRQRPPRLPRPRPRPKEVPRP", "shrunken log2 fold change": 0.382}, {"sequence": "RRIRVRPPRLPRPRPRPIVVPRP", "shrunken log2 fold change": -0.129}, {"sequence": "RRIRGRPPRLPRPRPRPDCAPRP", "shrunken log2 fold change": 1.53}, {"sequence": "RRIRLRPPRLPRPRPRPSVVPRP", "shrunken log2 fold change": -0.196}, {"sequence": "RRIRIRPPRLPRPRPRPIQDPRP", "shrunken log2 fold change": -0.205}, {"sequence": "RRIRTRPPRLPRPRPRPCMMPRP", "shrunken log2 fold change": -0.52}, {"sequence": "RRIRYRPPRLPRPRPRPRMQPRP", "shrunken log2 fold change": -0.673}, {"sequence": "RRIRMRPPRLPRPRPRPGMWPRP", "shrunken log2 fold change": 0.292}, {"sequence": "RRIRSRPPRLPRPRPRPDNAPRP", "shrunken log2 fold change": -0.201}, {"sequence": "RRIRARPPRLPRPRPRPDCKPRP", "shrunken log2 fold change": -0.129}, {"sequence": "RRIRARPPRLPRPRPRPDCLPRP", "shrunken log2 fold change": 0.948}, {"sequence": "RRIRKRPPRLPRPRPRPLNKPRP", "shrunken log2 fold change": -0.0644}, {"sequence": "RRIRRRPPRLPRPRPRPVYQPRP", "shrunken log2 fold change": -0.384}, {"sequence": "RRIRYRPPRLPRPRPRPIGTPRP", "shrunken log2 fold change": -0.1}, {"sequence": "RRIRDRPPRLPRPRPRPIYEPRP", "shrunken log2 fold change": 0.0032}, {"sequence": "RRIRTRPPRLPRPRPRPKQFPRP", "shrunken log2 fold change": -0.103}, {"sequence": "RRIRWRPPRLPRPRPRPESCPRP", "shrunken log2 fold change": 0.261}, {"sequence": "RRIRCRPPRLPRPRPRPHRWPRP", "shrunken log2 fold change": 0.317}, {"sequence": "RRIRIRPPRLPRPRPRPHPFPRP", "shrunken log2 fold change": -0.583}, {"sequence": "RRIRRRPPRLPRPRPRPDTKPRP", "shrunken log2 fold change": -0.139}, {"sequence": "RRIRPRPPRLPRPRPRPRGSPRP", "shrunken log2 fold change": 0.285}, {"sequence": "RRIRNRPPRLPRPRPRPWYIPRP", "shrunken log2 fold change": 0.00246}, {"sequence": "RRIRWRPPRLPRPRPRPHGYPRP", "shrunken log2 fold change": -0.018}, {"sequence": "RRIRVRPPRLPRPRPRPVGKPRP", "shrunken log2 fold change": -0.0282}, {"sequence": "RRIRQRPPRLPRPRPRPRPHPRP", "shrunken log2 fold change": 0.483}, {"sequence": "RRIRCRPPRLPRPRPRPELIPRP", "shrunken log2 fold change": -0.0287}, {"sequence": "RRIRSRPPRLPRPRPRPPRGPRP", "shrunken log2 fold change": 0.638}, {"sequence": "RRIRHRPPRLPRPRPRPPRAPRP", "shrunken log2 fold change": 0.667}, {"sequence": "RRIRERPPRLPRPRPRPWPQPRP", "shrunken log2 fold change": -0.0216}, {"sequence": "RRIRWRPPRLPRPRPRPESNPRP", "shrunken log2 fold change": 0.535}, {"sequence": "RRIRWRPPRLPRPRPRPNLRPRP", "shrunken log2 fold change": 0.174}, {"sequence": "RRIRDRPPRLPRPRPRPPHIPRP", "shrunken log2 fold change": -0.213}, {"sequence": "RRIRFRPPRLPRPRPRPWPGPRP", "shrunken log2 fold change": 0.112}, {"sequence": "RRIRIRPPRLPRPRPRPLQFPRP", "shrunken log2 fold change": -0.0429}, {"sequence": "RRIRTRPPRLPRPRPRPKIPPRP", "shrunken log2 fold change": -0.21}, {"sequence": "RRIRLRPPRLPRPRPRPLRWPRP", "shrunken log2 fold change": 0.524}, {"sequence": "RRIRKRPPRLPRPRPRPQVTPRP", "shrunken log2 fold change": -0.0535}, {"sequence": "RRIRIRPPRLPRPRPRPHYPPRP", "shrunken log2 fold change": -0.32}, {"sequence": "RRIRRRPPRLPRPRPRPKGKPRP", "shrunken log2 fold change": 0.195}, {"sequence": "RRIRYRPPRLPRPRPRPANCPRP", "shrunken log2 fold change": -0.225}, {"sequence": "RRIRSRPPRLPRPRPRPLKFPRP", "shrunken log2 fold change": -0.0436}, {"sequence": "RRIRARPPRLPRPRPRPEPFPRP", "shrunken log2 fold change": 0.0204}, {"sequence": "RRIRARPPRLPRPRPRPFNIPRP", "shrunken log2 fold change": -0.307}, {"sequence": "RRIRSRPPRLPRPRPRPRPAPRP", "shrunken log2 fold change": 0.467}, {"sequence": "RRIRNRPPRLPRPRPRPHDSPRP", "shrunken log2 fold change": -0.0662}, {"sequence": "RRIRWRPPRLPRPRPRPNYRPRP", "shrunken log2 fold change": -0.034}, {"sequence": "RRIRLRPPRLPRPRPRPHSMPRP", "shrunken log2 fold change": -0.506}, {"sequence": "RRIRSRPPRLPRPRPRPMNFPRP", "shrunken log2 fold change": -0.0407}, {"sequence": "RRIRVRPPRLPRPRPRPAGFPRP", "shrunken log2 fold change": 0.148}, {"sequence": "RRIRHRPPRLPRPRPRPSTRPRP", "shrunken log2 fold change": 0.0896}, {"sequence": "RRIRIRPPRLPRPRPRPSRFPRP", "shrunken log2 fold change": -0.278}, {"sequence": "RRIRPRPPRLPRPRPRPLTAPRP", "shrunken log2 fold change": 0.212}, {"sequence": "RRIRVRPPRLPRPRPRPKGVPRP", "shrunken log2 fold change": 0.472}, {"sequence": "RRIRVRPPRLPRPRPRPRLSPRP", "shrunken log2 fold change": 0.0321}, {"sequence": "RRIRTRPPRLPRPRPRPQAPPRP", "shrunken log2 fold change": -0.1}, {"sequence": "RRIRARPPRLPRPRPRPMTQPRP", "shrunken log2 fold change": 0.249}, {"sequence": "RRIRPRPPRLPRPRPRPRKVPRP", "shrunken log2 fold change": 0.00959}, {"sequence": "RRIRTRPPRLPRPRPRPFNWPRP", "shrunken log2 fold change": -0.22}, {"sequence": "RRIRHRPPRLPRPRPRPQFTPRP", "shrunken log2 fold change": -0.182}, {"sequence": "RRIRKRPPRLPRPRPRPEMMPRP", "shrunken log2 fold change": 0.113}]}]}
